Positions of bridges follow the written chain, without caps; N, C: chain ends.
T1: Recombinant mouse NELL2 (neural epidermal growth factor-like like 2) (mouse, UniProt Q61220 25-819)
T1 sequence (looked up): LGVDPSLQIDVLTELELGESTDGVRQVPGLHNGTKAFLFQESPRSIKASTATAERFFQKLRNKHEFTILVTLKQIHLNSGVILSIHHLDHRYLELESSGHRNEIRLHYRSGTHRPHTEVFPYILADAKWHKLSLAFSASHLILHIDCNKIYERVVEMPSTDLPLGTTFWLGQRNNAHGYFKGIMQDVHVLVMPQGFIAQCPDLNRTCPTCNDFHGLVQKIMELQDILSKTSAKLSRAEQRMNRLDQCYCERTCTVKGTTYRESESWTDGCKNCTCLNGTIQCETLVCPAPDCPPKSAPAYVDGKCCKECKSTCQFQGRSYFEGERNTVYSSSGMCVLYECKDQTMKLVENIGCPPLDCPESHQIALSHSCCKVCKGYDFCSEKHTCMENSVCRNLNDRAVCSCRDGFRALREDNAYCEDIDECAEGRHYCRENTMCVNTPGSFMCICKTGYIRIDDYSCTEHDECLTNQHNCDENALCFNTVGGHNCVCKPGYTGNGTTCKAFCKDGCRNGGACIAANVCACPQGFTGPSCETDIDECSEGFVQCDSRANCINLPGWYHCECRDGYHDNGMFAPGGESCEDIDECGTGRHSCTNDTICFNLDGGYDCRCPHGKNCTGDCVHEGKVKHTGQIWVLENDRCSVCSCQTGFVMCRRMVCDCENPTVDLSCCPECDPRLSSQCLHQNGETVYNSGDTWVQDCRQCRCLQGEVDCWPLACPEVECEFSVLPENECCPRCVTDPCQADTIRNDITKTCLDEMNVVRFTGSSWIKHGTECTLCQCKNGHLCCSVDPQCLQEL


Target: T1, Recombinant mouse NELL2 (neural …)
Experiment: SPR

| Kd [nM] | koff [s⁻¹] | kon [M⁻¹ s⁻¹] | Binder |
| --- | --- | --- | --- |
| 61.7 | 0.00134 | 23500 | Synthetic NICOL with the native SS bond pairing 3 (mouse NELL2-interacting cofactor for lumicrine signaling) (natural protein, disulfide 15-55, 18-57) EPATGSAVPAQSRPCVDCHAFEFMQRALQDLRKTAYSLDARTETLLLQAERRALCACWPAGR |
| 145 | 0.00157 | 13800 | Synthetic NICOL with the SS isomer 4 (mouse NICOL, non-native SS bond pairing) (natural protein, disulfide 15-57, 18-55) EPATGSAVPAQSRPCVDCHAFEFMQRALQDLRKTAYSLDARTETLLLQAERRALCACWPAGR |

— paper PMC12376267 (Chemistry (Weinheim an Der Bergstrasse, Germany), 2025)
